Laboratory results as given in the DeepSol protein solubility set.

assay: soluble on expression in E. coli; label from the status in PepcDB or PDB records

| Sequence | soluble on expression in E. coli |
| --- | --- |
| MAKKGPKRHLKRLAAPVRWELPRKIHKFTVRPLPGAHPMSESLPLLLIVRDILKYADNAREAKKIIKMGKVLVDGRVRKEEKLPVGLMDVVSLPDANENYRVLFDRKGRIKLKPTENPDVKLCKIKNKTVIKGGHIQLNLHDGRNIVIKVSDPTKAEEDVYKTGDTLLISIPEQEIKAHIPFEVGKLAYITGGKHVGDFAKIVEIERRGIYPDIVTLENMDGEKFKTVKDYVFVVGDEEPIIKLLEHHHHHH | soluble |
| MSLSAELLLNVTPSETRVAMIEGGILQEIHIEREAKRGIVGNIYKGKVSRVLPGMQAAFVDIGLDKAAFLHASDIVPHTECVAESEKQQFQVRDISELVRQGQDIVVQVVKDPLGTKGARLTTDITLPSRYLVFMPGASHVGVSQRIESEAERERLKKIVSHYCDEHGGFIIRTAAEGANEKELTQDAAFLKRLWSKVIERRSKYKNRSMLYGELGLAQRILRDFVGTELTKILIDSRQEFENLKEFTSEYVPELTAKLELYHGDKPIFDMYDTENEIQRSLERKVELKSGGYLIIDQTEAMTTIDINTGAFVGRRNLEETIFNTNIEATQAIARQLRLRNLGGIIIIDFIDMASDEHRKRVLTSLETALMKDRVKTNINGFTQLGLVEMTRKRTRESIEHVLCSTCPTCEGRGSVKTVETVCFEILREITRVNRAYDADKFVVYASPAVADTLQGEESHALAELEVFIGKEVRIQAEPLYNQEQFDVVMMEGGSHHHHHH | soluble |
| MVDVVMAPCSPVECRTAVVIDVLRATSTIVTALSNGASGVIPVKTIEEALEKKKEGVLICGERNAQKPKGFNLGNSPLEYRKEKISGKTIVLTTTNGTQVIEKIRSEEIIAASFLNLSAVVEYLKSKEDILLVCAGTNGRFSLEDFLLAGAIVKRLKRNDLGDGAHAAERYFESVENTREEIKKHSSHAKRLISLGFENDIEFCTTEDLFKTVPALVNGVFILKEFP | soluble |
| MLTLVGTYPPIRCGIATFNRDLREALLREGVPSQVAVVAHPEEVALPFPQEVVRVVAKEDREGYRALARLLRGPVILQHEYGLYGGKWGDYVLDLLEAQGPKLVVLHTLLQAPPPGLGEADLRYMQGLLRAMAERAQAFVALHPEGEGLLRALGVRIPVAHIPHGVPDLPRPPKEALKRALGLEGAFLLFTYGLLGPGKGLEFALKVLARVLPHNPRVRYLVAGRLHPNLERHEGRRYLERVREMAEALGVGEAFLLREGYLSEEELYRLAGAADLFLLPYPNLEQVSSGTLSYALALGKAVLSTPFRHARAALAAGRGVLLPLEEEAWAQAVLALAESPERLREMEERAYAYARDFTWPRVARAYRRLLEEVADVRPRVA | soluble |
| MSLQGGIRFSDGIAAVADNEVITRRRLAEAVAEAKANLPKDAQISESELSRQVLMQLVNQSLIVQAGKRRNIQASEAEIDAVVAKNPALKNLSPAQRRDFADNIIAEKVRQQAVMQNSRVSEAEIDAFLEQAQKQGITLPEGAPLRQYRAQHILIKADSENAAVGAESTIRKIYGEARSGTDFSSLARQYSQDASAGNGGDLGWFADGVMVPAFEEAVHALKPGQVGAPVRTQFGWHIIKLNEVRDAGTPQERIRNSVRQYIFQQKAEQATVNLLRDLHSGAYVDIREGHHHHHH | soluble |
| GSHMASTISVKDENGTVKVPKDAKRIVVLEYSFADALAALDVKPVGIADDGKKKRIIKPVREKIGDYTSVGTRKQPNLEEISKLKPDLIIADSSRHKGINKELNKIAPTLSLKSFDGDYKQNINSFKTIAKALNKEKEGEKRLAEHDKLINKYKDEIKFDRNQKVLPAVVAKAGLLAHPNYSYVGQFLNELGFKNALSDDVTKGLSKYLKGPYLQLDTEHLADLNPERMIIMTDHAKKDSAEFKKLQEDATWKKLNAVKNNRVDIVDRDVWARSRGLISSEEMAKELVELSKKEQK | soluble |
| MGSDKIHHHHHHELVIDITRGVREPMPIAIPVFGGTDAQSSAMGRDVVGVVSNDLQGSGLFRVLDPAAYIQSLPNLAVQPQFADWRAINAQALVQGEVQPQGDGRLRVAFRLWDVFSGQQVVGRAFLTQGDNWRRVSHIIADEIYKAITGEEGYFDTRVVYVAETGPKTNRVKKLAIMDQDGANQRNLTNGESMVLTPRFSPTAQEITYLSYYNSVPRVYLFNIETGRRELLGDFPGMTFAPRFSPDGNKVIMSMALDGNTEIYEMDLRTRRSSRLTNHPSIDTSPSYAPDGRQITFNSDRGGAQQIYVMNADGSGVQRISFGDGRYATPVWSPRGDLIAFTKLKGGRFFIGAMRPDGSGEKILTEGFLVEGPTWAPNGRVLMFFRQDPNGRTTLHSIDVTGYNERQISTPTEASDPAWSPLLP | not soluble |
| MWLWRKLWGIGGTMSRNTEATDDVKTWTGGPLNYKEGFFTQLATDELAKGINEEVVRAISAKRNEPEWMLEFRLNAYHAWLEMEEPHWLKAHYDKLNYQDYSYYSAPSCGNCDDNCASEPGAVQQTGANAFLSKEVEAAFEQLGVPVREGKEVAVDAIFDSVSVATTYREKLAEQGIIFCSFGEAIHDHPELVRKYLGTVVPGNDNFFAALNAAVASDGTFIYVPKGVRCPMELSTYFRINAEKTGQFERTILVADEDSYVSYIEGCSAPVRDSYQLHAAVVEVIIHKNAEVKYSTVQNWFPGDNNTGGILNFVTKRALCEGENSKMSWTQSETGSAITWKYPSCILRGDNSIGEFYSVALTSGHQQADTGTKMIHIGKNTKSTIISKGISAGHSQNSYRGLVKIMPTATNARNFTQCDSMLIGANCGAHTFPYVECRNNSAQLEHEATTSRIGEDQLFYCLQRGISEEDAISMIVNGFCKDVFSELPLEFAVEAQKLLAISLEHSVG | soluble |
| MSLCVFLTSEVNMGLFNFVKDAGEKLWDAVTANHDKDDQAKKVQEHLNKTGIPDTDKVNVQIADGKATVTGDGLSQEAKEKILVAVGNIAGISSVDDQVKTTTPAAESQFYTVKSGDTLSAISKQVYGNANLYNKIFEANKPMLKSPEKIYPGQVLRIPEEGHHHHHH | not soluble |
| GSYHADPSLVSFLTGLGCPNCIEYFTSQGLQSIYHLQNLTIEDLGALKIPEQYRMTIWRGLQDLKQGHDYSTAQQLLRSS | soluble |
| MGSDKIHHHHHHMSNTDKYYRDRSHITGKLDLQKLPKAIREKQYGIDVREAMAQTAEAIAGVQSTAQKFNQDTKNQVNQLDEKYTREIRAIVLGDTTSVATPPIQEPNSEASNPLSNLYETARGQVLYDFVKQSSLTKVSKIGVIGDSVAATAGGFPDILAHQYNIYVENLSVGGAKMSDYNHDAIVNQASRLQQCDVVIIQGTDDDWVHDISLGYAGDTNIKTYLGGLRETIKRVKNNNPKAKLIVVNCTRQCVDVHGKYRTEQSKNTFGLTLIDYMEAQKKYLNQQDVPYVDLMKPTSIFEPDNPAFKKTMMHDGLHPTPEAHQYIVQEIAKDYSYYYDK | not soluble |
| SSVSGLKAELKFLASIFDKNHERFRIVSWKLDELHCQFLVPQQGSPHSLPPPLTLHCNITESYPSSSPIWFVDSEDPNLTSVLERLEDTKNNNLLRQQLKWLICELCSLYNLPKHLDVEMLDQPLPTGQNGTTEEVTSEEEEEEEEMAEDIEDLDHYEMKEEEPISGKKSEDEGIEKENLAILEKIRKTQRQDHLNGAVSGSVQASDRLMKELRDIYRSQSYKTGIYSVELINDSLYDWHVKLQKVDPDSPLHSDLQILKEKEGIEYILLNFSFKDNFPFDPPFVRVVLPVLSGGYVLGGGALCMELLTKQGWSSAYSIESVIMQINATLVKGKARVQFGANKNQYNLARAQQSYNSIVQIHEKNGWYTPPKEDG | not soluble |
| MGCTLSAEDKAAVERSKMIDRNLREDGERSRRELKLLLLGTGESGKSTFIKQMRIIHGSGYSDEDKRGFTKLVYQNIFTAMQAMIRAMDTLKIPYKYEHNKAHAQLVREVDVEKVSAFENPYVDAIKSLWNDPGIQECYDRRREYQLSDSTKYYLNDLDRVADPSYLPTQQDVLRVRVPTTGIIEYPFDLQSVIFRMVDVGGQRSERRKWIHCFENVTSIMFLVALSEYDQVLVESDNENRMEESKALFRTIITYPWFQNSSVILFLNKKDLLEEKIMYSHLVDYFPEYDGPQRDAQAAREFILKMFVDLNPDSDKIIYSHFTCATDTENIRFVFAAVKDTILQLNLKEYNLV | soluble |
| MFERLREDIQSVFHRDPAARNAFEVLTCYPGMHAIWLHRLGNALWRRDFKWLARLVSNFGRWLTGIEIHPGATIGRRFFIDHGMGIVIGETAEIGDDVTLYQGVTLGGTSWNKGKRHPTLENGVVVGAGAKVLGPFTVGAGAKIGSNAVVTKAVPAGATAVGIPGRIIVKSEDTEVEAKRKAMAEKIGFDAYGVSGDMPDPVARAIGQMLDHLQAVDERLEGMCGALTKMGSDYCAKELPALPEDDFSLEHHHHHH | soluble |
| MDYKVSRSGEIVEGEVEDSEKIDLPPGFRFHPTDEELITHYLRPKVVNSFFSAIAIGEVDLNKVEPWDLPWKAKLGEKEWYFFCVRDRKYPTGLRTNRATKAGYWKATGKDKEIFKGKSLVGMKKTLVFYKGRAPKGVKTNWVMHEYRLEGKFAIDNLSKTAKNECVISRVFHTRTDGTKEHMSVGLPPLMDSSPYLKSRGQDSLAGTTLGGLLSHVTYFSDQTTDDKSLVADFKTTMFGSGSTNFLPNIGSLLDFDPLFLQNNSSVLKMLLDNEETQFKKNLHNSGSSESELTASSWQGHNSYGSTGPVNLDCVWKF | soluble |
| MTITRQDAWTQDEDLLLAEVVLRHIREGGTQLSAFEEVGRALTRTAAACGFRWNSYVRKQYQSGIELAKKQRKELRKQIGVHSVNMPNSMKQTASASSEGKRDLSIQDVIQFLEQFKETPSAQEFQLEREKLKEQIQSLQKELEDLRSENQTLRNQLEMTEEDYKALIDIMDRARKMVVSKEDGRMKKAAQETLEHHHHHH | not soluble |
| MGSSHHHHHHSSGRENLYFQGHMSKFVITCIAHGENLPKETIDQIAKEITESSAKDVSINGTKKLSARATDIFIEVAGSIVQKDLKNKLTNVIDSHNDVDVIVSVDNEYRQAKKLFVFDMDSTLIYQEVIELIAAYAGVEEQVHEITERAMNNELDFKESLRERVKLLQGLQVDTLYDEIKQKLEVTKGVPELCKFLHKKNCKLAVLSGGFIQFAGFIKDQLGLDFCKANLLEVDTDGKLTGKTLGPIVDGQCKSETLLQLCNDYNVPVEASCMVGDGGNDLPAMATAGFGIAWNAKPKVQKAAPCKLNTKSMTDILYILGYTDDEIYNRQ | soluble |
| MGSDKIHHHHHHMQPETSAQYQHRFSQAIRGGEAADGLPQDRLNVYIRLIRNNIHSFIDRCYTETRQYFDSKEWSRLKEGFVRDARAQTPYFQEIPGEFLQYCQSLPLSDGILALMDFEYTQLLAEVAQIPDIPDIHYSNDSKYTPSPAAFIRQYRYDVTHDLQEAETALLIWRNAEDDVMYQTLDGFDMMLLEIMGSSALSFDTLAQTLVEFMPKADNWKNILLGKWSGWIEQRIIIPSLSAISENMEGNSPSQNHLSA | not soluble |
| MMGTAWPPPELADVFAQQDIWSAWYAGTPEGLTDAYLNAPNDRPAARRKGLLARLGRWFWGQPTPMGERPSKLHVPLAGAIAAVSANLLFGAPLNLTVDDAATQERLDQLADDTTYAVLREAAEMSAALGGVYLRVVWDQSIQDKPWLVAASPDIAVPEWKWGRLSAVTFWNVIREDANTVVRQLERHEPGWIRHSVWIGSANELGVQMALTDFPETAGLADLVIDGDGIPTGTPKLTAQYIPNLKPNKLWRHLPAAANLGRSDFSGVEALMDALDEAYSDWMRDLRTGKARLLVGTEVLENLGKGQGAHFDIDRELFAPLNLEPGEDKGSVIEQVQFNIRTEEHRALCADLAERIILGAGYSLQTFGVTSEGSGNPTATEIAARERQSLTTRANKTSYWRPALAHLFGVLLEIDRTVFRSQVVPQIPDVEFPDVVTPDPGETARQLNDLNTAGAISTYEKVRRLNPDWRDEQVLEEVARIKADQAEAKPQPTHPARAQEPAGQPEKSPEGSQVNEDVSEPLVAR | not soluble |
